Measurements: US20240425885

How the values were obtained:
Experiment in all cases: cleavage_in_vitro
[1] = tested on: OMNI-119 (metagenomic, unknown); conditions: TXTL; PAM NNACNNNN
[2] = tested on: OMNI-110 (metagenomic, unknown); conditions: TXTL; PAM NNRTNCNN
[3] = tested on: T1, OMNI-120 (metagenomic, unknown); conditions: TXTL; PAM NRVACNNN
T1 sequence: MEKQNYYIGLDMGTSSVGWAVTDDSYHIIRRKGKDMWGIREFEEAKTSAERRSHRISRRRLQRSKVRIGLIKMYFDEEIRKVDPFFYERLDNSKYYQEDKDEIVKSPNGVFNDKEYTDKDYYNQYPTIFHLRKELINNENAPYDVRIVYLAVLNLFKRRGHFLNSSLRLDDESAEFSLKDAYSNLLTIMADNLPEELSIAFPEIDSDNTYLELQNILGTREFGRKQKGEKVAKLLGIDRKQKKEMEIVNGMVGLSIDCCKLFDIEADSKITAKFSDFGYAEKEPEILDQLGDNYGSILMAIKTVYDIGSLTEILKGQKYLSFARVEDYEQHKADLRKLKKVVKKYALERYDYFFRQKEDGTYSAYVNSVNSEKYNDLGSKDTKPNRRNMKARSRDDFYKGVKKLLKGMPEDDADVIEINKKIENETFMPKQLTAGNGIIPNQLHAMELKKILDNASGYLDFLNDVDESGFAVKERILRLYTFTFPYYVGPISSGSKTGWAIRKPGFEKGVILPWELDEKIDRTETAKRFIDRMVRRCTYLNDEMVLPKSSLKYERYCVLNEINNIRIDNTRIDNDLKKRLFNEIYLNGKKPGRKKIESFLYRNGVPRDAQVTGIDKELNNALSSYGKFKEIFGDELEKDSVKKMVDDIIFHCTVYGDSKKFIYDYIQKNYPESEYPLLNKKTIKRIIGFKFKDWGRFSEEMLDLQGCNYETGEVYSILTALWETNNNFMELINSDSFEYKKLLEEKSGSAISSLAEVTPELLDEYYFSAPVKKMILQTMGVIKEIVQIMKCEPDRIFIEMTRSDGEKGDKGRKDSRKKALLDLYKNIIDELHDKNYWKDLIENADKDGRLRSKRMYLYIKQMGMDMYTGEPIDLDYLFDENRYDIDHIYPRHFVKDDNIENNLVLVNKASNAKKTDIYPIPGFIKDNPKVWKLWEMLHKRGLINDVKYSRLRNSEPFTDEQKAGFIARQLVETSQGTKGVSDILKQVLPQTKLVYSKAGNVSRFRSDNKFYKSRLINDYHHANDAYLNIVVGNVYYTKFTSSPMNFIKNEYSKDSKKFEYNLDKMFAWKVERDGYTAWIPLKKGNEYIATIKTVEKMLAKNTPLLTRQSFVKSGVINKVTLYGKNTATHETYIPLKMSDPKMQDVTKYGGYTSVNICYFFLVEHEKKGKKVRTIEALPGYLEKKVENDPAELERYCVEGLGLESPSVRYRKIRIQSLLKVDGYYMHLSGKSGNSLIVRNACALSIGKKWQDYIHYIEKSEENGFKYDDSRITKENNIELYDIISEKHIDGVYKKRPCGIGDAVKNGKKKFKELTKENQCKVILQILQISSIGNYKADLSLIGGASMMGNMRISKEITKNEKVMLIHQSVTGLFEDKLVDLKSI

[4] = tested on: T2, OMNI-114 (metagenomic, unknown); conditions: TXTL; PAM NRGGACNN
T2 sequence: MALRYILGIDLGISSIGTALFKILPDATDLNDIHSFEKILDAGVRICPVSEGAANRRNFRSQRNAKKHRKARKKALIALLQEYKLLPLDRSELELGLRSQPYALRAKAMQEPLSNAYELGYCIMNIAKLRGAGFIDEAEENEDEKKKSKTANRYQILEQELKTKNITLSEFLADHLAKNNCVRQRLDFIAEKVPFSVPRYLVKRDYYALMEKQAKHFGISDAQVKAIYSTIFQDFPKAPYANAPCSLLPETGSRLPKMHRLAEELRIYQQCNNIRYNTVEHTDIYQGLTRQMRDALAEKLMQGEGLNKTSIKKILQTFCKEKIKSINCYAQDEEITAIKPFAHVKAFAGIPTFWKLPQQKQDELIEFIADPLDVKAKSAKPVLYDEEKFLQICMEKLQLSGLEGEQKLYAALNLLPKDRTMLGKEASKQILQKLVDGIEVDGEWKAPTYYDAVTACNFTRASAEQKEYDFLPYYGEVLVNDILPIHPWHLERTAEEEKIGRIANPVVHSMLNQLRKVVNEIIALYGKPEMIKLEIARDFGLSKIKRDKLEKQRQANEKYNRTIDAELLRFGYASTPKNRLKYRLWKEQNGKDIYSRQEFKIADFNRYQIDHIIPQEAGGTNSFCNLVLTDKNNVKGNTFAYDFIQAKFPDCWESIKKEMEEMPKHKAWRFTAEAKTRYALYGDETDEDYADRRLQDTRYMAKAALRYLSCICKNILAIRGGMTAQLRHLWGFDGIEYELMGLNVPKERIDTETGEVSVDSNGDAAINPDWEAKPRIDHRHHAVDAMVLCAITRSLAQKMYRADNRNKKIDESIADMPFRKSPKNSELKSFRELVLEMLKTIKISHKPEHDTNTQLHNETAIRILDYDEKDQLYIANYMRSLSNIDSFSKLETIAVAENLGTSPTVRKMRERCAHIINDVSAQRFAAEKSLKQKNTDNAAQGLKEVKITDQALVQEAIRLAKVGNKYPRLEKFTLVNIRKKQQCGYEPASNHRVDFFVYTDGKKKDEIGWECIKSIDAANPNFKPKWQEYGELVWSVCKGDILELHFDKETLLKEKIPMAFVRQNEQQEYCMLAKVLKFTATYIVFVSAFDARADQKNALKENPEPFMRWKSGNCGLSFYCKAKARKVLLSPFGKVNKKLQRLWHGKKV

[5] = tested on: T3, OMNI-116 (metagenomic, unknown); conditions: TXTL; PAM NRGGACNN
T3 sequence: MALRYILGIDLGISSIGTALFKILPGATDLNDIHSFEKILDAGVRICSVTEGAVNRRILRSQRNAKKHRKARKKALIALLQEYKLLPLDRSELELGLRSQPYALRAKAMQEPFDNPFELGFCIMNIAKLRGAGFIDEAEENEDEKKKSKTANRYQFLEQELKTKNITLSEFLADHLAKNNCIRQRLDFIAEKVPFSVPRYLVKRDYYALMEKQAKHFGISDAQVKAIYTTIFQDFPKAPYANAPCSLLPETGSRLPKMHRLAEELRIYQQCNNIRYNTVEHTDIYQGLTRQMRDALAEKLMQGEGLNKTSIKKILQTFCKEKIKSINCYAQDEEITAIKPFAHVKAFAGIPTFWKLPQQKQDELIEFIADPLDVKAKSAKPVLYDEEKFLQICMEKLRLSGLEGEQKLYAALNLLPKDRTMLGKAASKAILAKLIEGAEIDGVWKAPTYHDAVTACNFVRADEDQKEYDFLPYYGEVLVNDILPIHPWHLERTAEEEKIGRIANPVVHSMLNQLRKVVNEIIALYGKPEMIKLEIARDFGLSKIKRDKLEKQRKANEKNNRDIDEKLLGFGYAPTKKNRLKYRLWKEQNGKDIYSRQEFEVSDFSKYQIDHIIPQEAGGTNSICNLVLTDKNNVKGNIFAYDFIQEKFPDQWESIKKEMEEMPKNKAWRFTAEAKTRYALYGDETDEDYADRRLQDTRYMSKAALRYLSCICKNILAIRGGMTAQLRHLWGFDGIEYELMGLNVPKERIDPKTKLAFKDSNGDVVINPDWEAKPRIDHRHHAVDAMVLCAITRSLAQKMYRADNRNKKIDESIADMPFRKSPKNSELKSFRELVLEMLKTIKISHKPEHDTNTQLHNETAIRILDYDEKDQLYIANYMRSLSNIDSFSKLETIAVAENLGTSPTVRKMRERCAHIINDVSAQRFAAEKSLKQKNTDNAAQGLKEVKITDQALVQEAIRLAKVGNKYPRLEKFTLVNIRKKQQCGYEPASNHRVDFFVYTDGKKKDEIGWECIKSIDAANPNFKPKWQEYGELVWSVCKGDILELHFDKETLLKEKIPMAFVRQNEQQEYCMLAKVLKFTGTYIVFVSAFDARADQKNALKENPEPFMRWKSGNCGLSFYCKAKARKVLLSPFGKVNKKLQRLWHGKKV

[6] = tested on: T4, OMNI-109 (metagenomic, unknown); conditions: TXTL; PAM NNAARCNN
T4 sequence: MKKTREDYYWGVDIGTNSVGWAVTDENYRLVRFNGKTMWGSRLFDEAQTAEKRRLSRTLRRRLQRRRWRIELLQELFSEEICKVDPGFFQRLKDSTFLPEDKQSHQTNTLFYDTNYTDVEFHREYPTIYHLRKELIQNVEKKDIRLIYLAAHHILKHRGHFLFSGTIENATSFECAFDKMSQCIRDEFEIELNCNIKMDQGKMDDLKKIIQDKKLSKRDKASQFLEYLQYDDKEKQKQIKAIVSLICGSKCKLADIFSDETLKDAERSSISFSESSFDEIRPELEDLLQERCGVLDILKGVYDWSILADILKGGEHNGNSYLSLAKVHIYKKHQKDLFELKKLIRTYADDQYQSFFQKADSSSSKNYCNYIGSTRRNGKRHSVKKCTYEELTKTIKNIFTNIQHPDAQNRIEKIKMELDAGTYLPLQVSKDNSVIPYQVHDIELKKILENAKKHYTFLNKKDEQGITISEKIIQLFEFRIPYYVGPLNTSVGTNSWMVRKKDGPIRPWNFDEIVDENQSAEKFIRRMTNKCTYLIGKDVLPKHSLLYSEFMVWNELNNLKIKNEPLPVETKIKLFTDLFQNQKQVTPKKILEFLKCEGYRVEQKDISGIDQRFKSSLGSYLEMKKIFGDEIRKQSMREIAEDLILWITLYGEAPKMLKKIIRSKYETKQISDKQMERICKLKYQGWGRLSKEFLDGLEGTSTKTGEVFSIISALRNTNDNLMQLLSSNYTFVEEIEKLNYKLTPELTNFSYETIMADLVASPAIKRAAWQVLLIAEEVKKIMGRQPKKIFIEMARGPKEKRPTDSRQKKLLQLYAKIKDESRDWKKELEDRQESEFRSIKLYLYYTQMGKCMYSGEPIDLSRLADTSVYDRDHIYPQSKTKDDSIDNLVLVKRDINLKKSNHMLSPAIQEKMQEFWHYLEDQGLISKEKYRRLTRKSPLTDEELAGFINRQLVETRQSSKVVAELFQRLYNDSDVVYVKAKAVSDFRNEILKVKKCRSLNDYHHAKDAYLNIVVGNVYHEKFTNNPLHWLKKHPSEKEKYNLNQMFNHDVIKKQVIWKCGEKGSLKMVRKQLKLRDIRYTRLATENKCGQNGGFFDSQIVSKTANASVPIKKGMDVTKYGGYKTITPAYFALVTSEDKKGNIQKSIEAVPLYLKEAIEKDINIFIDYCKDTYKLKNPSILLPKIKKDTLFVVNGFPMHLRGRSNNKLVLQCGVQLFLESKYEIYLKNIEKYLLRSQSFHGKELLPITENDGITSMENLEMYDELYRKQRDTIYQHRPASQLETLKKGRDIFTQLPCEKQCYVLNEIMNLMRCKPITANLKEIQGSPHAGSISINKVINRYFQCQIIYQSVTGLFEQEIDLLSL

OMNI-110 (metagenomic, unknown), sequence (chain, as listed by the source): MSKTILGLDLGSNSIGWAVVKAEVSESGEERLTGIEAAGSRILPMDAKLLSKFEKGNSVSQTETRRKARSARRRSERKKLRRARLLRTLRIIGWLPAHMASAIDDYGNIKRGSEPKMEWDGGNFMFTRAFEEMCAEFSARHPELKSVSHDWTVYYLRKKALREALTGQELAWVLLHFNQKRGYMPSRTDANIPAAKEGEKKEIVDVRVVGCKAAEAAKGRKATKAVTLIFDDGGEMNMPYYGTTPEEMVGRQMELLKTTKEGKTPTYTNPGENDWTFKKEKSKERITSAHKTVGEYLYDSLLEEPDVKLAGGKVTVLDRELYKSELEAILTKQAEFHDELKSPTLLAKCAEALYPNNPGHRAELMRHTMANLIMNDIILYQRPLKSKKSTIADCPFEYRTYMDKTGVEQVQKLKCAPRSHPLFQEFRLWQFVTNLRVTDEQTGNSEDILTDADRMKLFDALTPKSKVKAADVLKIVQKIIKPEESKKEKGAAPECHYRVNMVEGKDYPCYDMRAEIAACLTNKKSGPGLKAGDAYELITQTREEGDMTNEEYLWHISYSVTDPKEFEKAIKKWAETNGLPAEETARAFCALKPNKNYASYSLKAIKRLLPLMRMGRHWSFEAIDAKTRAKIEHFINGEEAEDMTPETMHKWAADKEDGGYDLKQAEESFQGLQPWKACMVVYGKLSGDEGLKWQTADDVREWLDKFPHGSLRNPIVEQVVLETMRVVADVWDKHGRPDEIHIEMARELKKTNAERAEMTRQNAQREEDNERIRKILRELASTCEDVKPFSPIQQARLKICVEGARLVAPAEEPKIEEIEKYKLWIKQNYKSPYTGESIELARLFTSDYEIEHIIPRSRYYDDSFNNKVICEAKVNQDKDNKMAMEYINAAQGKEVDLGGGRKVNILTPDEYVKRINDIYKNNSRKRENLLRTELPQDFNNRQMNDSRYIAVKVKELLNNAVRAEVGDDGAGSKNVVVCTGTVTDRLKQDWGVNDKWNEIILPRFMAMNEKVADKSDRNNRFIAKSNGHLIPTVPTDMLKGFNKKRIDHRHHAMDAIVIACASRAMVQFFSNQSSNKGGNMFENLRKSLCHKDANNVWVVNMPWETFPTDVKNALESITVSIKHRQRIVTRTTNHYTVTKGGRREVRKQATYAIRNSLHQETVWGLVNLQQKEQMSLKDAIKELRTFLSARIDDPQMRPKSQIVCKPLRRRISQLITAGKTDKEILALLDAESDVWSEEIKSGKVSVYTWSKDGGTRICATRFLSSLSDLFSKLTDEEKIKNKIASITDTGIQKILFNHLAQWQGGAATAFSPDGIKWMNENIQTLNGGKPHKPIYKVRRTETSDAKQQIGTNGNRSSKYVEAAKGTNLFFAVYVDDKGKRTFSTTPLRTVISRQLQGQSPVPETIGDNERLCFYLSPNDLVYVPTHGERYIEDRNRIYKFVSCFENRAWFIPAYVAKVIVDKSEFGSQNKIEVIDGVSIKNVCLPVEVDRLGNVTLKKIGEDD
OMNI-119 (metagenomic, unknown), sequence (chain, as listed by the source): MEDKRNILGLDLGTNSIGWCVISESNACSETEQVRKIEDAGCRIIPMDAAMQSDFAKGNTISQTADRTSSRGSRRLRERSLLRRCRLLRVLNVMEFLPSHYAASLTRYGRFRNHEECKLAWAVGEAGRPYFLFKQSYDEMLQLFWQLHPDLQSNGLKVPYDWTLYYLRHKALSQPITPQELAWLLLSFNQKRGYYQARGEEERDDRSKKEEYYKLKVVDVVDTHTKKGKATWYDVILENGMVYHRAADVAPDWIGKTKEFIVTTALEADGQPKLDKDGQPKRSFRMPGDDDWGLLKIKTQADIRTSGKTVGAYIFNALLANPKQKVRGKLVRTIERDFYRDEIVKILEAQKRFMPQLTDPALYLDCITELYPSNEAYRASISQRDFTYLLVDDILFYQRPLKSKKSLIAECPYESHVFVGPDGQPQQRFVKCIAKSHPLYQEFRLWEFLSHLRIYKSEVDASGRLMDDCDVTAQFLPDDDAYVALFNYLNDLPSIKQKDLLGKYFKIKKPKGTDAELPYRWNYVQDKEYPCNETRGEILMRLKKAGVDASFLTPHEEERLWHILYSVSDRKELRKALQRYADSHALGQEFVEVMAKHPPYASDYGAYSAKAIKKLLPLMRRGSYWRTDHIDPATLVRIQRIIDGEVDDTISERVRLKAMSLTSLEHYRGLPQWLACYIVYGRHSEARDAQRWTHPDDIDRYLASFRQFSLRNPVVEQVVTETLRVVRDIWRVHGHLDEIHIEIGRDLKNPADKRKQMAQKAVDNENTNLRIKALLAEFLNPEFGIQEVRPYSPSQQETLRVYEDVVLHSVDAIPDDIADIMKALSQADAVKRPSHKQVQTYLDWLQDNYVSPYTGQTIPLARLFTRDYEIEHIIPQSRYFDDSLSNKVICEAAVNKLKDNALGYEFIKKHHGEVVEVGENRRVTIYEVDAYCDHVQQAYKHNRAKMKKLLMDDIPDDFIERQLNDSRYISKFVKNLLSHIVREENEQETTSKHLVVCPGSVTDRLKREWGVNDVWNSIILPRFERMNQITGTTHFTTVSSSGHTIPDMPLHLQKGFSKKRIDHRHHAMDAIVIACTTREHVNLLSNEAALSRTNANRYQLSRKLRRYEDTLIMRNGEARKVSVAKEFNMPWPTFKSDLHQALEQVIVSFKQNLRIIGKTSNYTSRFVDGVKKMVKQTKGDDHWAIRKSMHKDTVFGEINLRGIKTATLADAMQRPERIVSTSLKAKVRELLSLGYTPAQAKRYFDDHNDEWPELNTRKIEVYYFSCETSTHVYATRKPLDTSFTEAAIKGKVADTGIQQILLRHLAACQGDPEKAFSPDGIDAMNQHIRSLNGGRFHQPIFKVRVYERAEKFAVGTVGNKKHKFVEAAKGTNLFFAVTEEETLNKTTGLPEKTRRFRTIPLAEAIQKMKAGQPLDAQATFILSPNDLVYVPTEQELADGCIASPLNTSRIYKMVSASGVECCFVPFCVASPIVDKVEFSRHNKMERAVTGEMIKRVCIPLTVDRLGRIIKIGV

GGAAGAGCAGAGCCUUGGUCUCGUUGUGAUUUGCUGAGGAAACUAGCAAAUCACAAUAAGGAUUAUUCCGUUGUGAACACAUUAGGUCCCAACCCAUCGUCCUUUAACGGUGGGUUAUUUUUU / GGAAGAGCAGAGCCTTGGTCTCNNNNNNNN / NNNNNNNNGAGACCAAGGCTCTGCTCTTCC [T2 sgRNA 22 V1 ; T2 protospacer + 8N PAM library (pbPOS T2)]
activity (1-depletion score) [1]: 0.97

GGAAGAGCAGAGCCUUGGUCUCGUUGUGAUUCGCUUCCGAAAGCAAGCGAAUCACAAUAAGGAUUAUUCCGUUGUGAAAACAUUUAAGUCGGGCCUCCUUCGGUUGGCUCGGCUUUUUUU / GGAAGAGCAGAGCCTTGGTCTCNNNNNNNN / NNNNNNNNGAGACCAAGGCTCTGCTCTTCC [T2 sgRNA 18 V1 ; T2 protospacer + 8N PAM library (pbPOS T2)]
activity (1-depletion score) [2]: 0.95

GGAAGAGCAGAGCCUUGGUCUCGUUUGAGAGCCUUGUUAGAAAUAACAAGGCGAGUGCAAAUAAGGUUUAACCGAAUUCACCGUUUAUGGACCGCAUUGUGCGGAUUUUAAAAAAGACUUUCAAAGUCUUUUUU / GGAAGAGCAGAGCCTTGGTCTCNNNNNNNN / NNNNNNNNGAGACCAAGGCTCTGCTCTTCC [T2 sgRNA 23 V1 ; T2 protospacer + 8N PAM library (pbPOS T2)]
activity (1-depletion score) [3]: 0.95

GGAAGAGCAGAGCCUUGGUCUCGUUUUACUUGCCUGUCGAAAGAUAGGCAAUAAAACAAAUAUAAUUUCUUUUGAAAUUAUAUGUAAAAUGUUUAAAGCCCUCCUUUUCAGGGGGGCUUUUUU / GGAAGAGCAGAGCCTTGGTCTCNNNNNNNN / NNNNNNNNGAGACCAAGGCTCTGCTCTTCC [T2 sgRNA 20 V1 ; T2 protospacer + 8N PAM library (pbPOS T2)]
activity (1-depletion score) [4]: 0.96
activity (1-depletion score) [5]: 0.96

GGAAGAGCAGAGCCUUGGUCUCGUUUGAGAGUAGUGUAAGAAAUUACACUACAAGUUCAAAUAAAAAUUUAUUCUAAUCGCUCUUCGGAGCCUCCACAGGAGUGGAUUUAAGACUUGCUUCGGCGAGUCUUUUUU / GGAAGAGCAGAGCCTTGGTCTCNNNNNNNN / NNNNNNNNGAGACCAAGGCTCTGCTCTTCC [T2 sgRNA 17 V1 ; T2 protospacer + 8N PAM library (pbPOS T2)]
activity (1-depletion score) [6]: 0.94
